Data on four molecules can be found in article doi:10.1101/2021.04.20.440599, “Structures of a deAMPylation complex rationalise the switch between antagonistic catalytic activities of FICD (14/96/109)” (bioRxiv, 2021).

Data set [1] concerns the target T1, lid-truncated BiP^T229A-V461F-AMP (residues 27-549) (Chinese hamster, UniProt G3I8R9 27-549, T229A | V461F, AMP covalently attached to Thr518 (Thr518-AMP)).
T1 construct: BiP, Chinese hamster, residues 27-549 (all of the SBD-alpha lid removed but helix A); in the expressed range hamster and human BiP are identical; also called lid-truncated BiP-AMP; AMPylated BiP; source: E. coli, purified (Ni-NTA, on-bead Ulp1 cleavage, anion exchange, gel filtration); AMPylated in vitro with GST-TEV-FICD^E234G; not shown: His6-Smt3, N-terminal, cleaved
As to the kind of experiment: crystal structure; heterodimer of FICD^L258D-H363A and lid-truncated BiP-AMP copurified by SEC in TNKMT buffer (mixed 1.5:1 with 250 uM ATP, 50 mM KCl, 2 mM MgCl2); sitting drop at 25 °C; state 1: 0.1 M MES pH 6.5, 10% PEG 4000, 0.2 M NaCl; state 2: 0.1 M Tris pH 8.0, 25% PEG 400. As to conditions: both partners purified.

The target of data set [2] is T2, AMPylated biotinylated-AviTag-haBiP^T229A-V461F (Chinese hamster, UniProt G3I8R9 27-635, T229A | V461F, AMP covalently attached to Thr518; biotin on the N-terminal Avi-tag).
T2 construct: GS linker between the avi-tag and BiP; BiP, Chinese hamster, residues 27-635; Immobilised BLI ligand; also called BiP-AMP; immobilised AMPylated BiP; source: E. coli, purified; AMPylated in vitro, biotinylated in vitro, made apo, then loaded with 2 mM ATP on the sensor; not shown: His6-Smt3, N-terminal, cleaved; Avi-tag (biotinylated), N-terminal, kept
T2 sequence (G3I8R9 other isoform, or with tags, fused parts or gaps T229A | V461F | T229A | V461F | T229A V461F T229A V461F): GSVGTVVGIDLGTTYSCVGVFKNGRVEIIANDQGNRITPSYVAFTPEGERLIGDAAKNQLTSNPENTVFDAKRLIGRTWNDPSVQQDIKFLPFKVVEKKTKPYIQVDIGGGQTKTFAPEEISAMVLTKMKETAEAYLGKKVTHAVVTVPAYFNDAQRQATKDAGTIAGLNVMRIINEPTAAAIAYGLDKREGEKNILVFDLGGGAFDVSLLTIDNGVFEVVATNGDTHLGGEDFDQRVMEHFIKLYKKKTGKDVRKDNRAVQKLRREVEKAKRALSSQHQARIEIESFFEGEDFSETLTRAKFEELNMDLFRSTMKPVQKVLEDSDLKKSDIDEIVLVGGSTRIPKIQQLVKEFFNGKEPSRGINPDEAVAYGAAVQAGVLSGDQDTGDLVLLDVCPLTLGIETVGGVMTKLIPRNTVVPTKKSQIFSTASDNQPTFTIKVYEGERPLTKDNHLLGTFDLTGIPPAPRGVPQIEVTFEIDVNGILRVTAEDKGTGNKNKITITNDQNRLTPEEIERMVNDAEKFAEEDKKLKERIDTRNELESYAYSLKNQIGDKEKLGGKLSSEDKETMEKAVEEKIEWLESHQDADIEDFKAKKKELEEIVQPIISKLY
As to the kind of experiment: BLI; biotinylated Avi-tagged BiP (AMPylated or unmodified) on streptavidin biosensors, activated in 2 mM ATP; apo FICD variants (all H363A) as analytes at 50 nM unless otherwise specified; HKM with 0.05% Triton X-100, 30 °C; second dissociation step with 2 mM ATP. Particulars: both partners purified.

Data set [3] deals with T3, biotinylated-AviTag-haBiP^T229A-V461F, unmodified, ATP-bound (Chinese hamster, UniProt G3I8R9 27-635, T229A | V461F, biotin on the N-terminal Avi-tag).
T3 construct: GS linker between the avi-tag and BiP; BiP, Chinese hamster, residues 27-635; Immobilised BLI ligand; The in vitro AMPylation assay used untagged BiP^T229A-V461F (UK2521); also called BiP:ATP; unmodified BiP; source: E. coli, purified; biotinylated in vitro, made apo, then loaded with 2 mM ATP on the sensor; not shown: His6-Smt3, N-terminal, cleaved; Avi-tag (biotinylated), N-terminal, kept
T3 sequence (G3I8R9 other isoform, or with tags, fused parts or gaps T229A | V461F | T229A | V461F | T229A V461F T229A V461F): as above
The data set is described as above. Particulars: both partners purified.

In data set [4] the target is T4, BiP^T229A-V461F-AMP (residues 27-635) (Chinese hamster, UniProt G3I8R9 27-635, T229A | V461F, AMP covalently attached to Thr518).
T4 construct: BiP, Chinese hamster, residues 27-635 ('full-length': complete structured region; lacks the acidic N-terminal region and the C-terminal region with KDEL); The deAMPylation assays used BiP^T229A-V461F (UK2521) AMPylated in vitro, with a trace of AMP(FAM)-labelled probe; also called full-length BiP-AMP; full-length AMPylated BiP; source: E. coli, purified; AMPylated in vitro with …
T4 sequence (G3I8R9 27-635 T229A/V461F): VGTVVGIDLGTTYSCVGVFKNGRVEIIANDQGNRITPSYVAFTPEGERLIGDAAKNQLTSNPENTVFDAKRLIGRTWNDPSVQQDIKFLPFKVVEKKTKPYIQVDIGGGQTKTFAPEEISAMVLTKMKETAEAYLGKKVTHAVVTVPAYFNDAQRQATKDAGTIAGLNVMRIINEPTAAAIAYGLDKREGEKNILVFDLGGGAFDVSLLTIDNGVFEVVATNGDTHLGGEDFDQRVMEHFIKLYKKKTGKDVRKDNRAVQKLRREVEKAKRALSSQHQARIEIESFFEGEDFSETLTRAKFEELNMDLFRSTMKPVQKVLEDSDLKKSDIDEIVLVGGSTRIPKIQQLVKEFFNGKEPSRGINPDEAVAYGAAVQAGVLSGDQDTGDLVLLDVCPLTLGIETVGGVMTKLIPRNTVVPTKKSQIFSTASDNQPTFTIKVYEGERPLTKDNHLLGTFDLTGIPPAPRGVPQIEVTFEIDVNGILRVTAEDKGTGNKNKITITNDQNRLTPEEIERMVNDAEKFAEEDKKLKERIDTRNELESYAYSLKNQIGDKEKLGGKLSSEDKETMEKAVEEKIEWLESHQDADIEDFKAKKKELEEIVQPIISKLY
As to the kind of experiment: contrast variation small angle neutron scattering (SANS); complexes of partially deuterated and non-deuterated dimeric FICD^H363A and full-length BiP-AMP copurified by SEC (1.25:1 BiP-AMP:FICD, 250 uM ATP) into TNKMT(0.2) buffers of varying D2O content; 4.3-5.5 mg/ml, 12 °C. As to conditions: both partners purified. (In general: In gel filtration, larger molecules generally elute earlier.)

Data set [5] deals with the molecule itself. Described as above.

T1 sequence (G3I8R9 27-549 T229A/V461F): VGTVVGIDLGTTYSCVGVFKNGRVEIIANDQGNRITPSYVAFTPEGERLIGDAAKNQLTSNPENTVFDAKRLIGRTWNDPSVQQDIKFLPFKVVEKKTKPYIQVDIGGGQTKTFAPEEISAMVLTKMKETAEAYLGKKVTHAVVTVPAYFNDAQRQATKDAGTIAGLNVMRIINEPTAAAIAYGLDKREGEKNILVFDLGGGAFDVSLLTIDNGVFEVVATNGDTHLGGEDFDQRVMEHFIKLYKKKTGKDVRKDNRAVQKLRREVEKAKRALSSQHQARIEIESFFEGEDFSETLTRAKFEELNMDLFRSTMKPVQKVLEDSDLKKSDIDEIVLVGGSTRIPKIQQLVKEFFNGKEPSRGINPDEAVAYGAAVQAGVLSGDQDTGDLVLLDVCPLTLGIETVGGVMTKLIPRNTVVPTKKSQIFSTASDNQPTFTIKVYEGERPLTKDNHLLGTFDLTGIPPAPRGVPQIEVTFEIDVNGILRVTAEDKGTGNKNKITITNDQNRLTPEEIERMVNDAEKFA

B1: FICD^L258D-H363A (residues 104-445) (enzyme, human, UniProt Q9BVA6 104-445, looked up)
chain: LEARAALNQALEMKRQGKREKAQKLFMHALKMDPDFVDALTEFGIFSEEDKDIIQADYLYTRALTISPYHEKALVNRDRTLPLVEEIDQRYFSIIDSKVKKVMSIPKGNSALRRVMEETYYHHIYHTVAIEGNTLTLSEIRHILETRYAVPGKSDEEQNEVIGMHAAMKYINTTLVSRIGSVTISDVLEIHRRVLGYVDPVEAGRFRTTQVLVGHHIPPHPQDVEKQMQEFVQWLNSEEAMNLHPVEFAALAHYKLVYIAPFIDGNGRTSRLLMNLILMQAGYPPITIRKEQRSDYYHVLEAANEGDVRPFIRFIAKCTETTLDTLLFATTEYSVALPEAQP
notes: FICD, human, residues 104-445 (only the predicted structured regions were expressed); Used in the crystal structures and as BLI analyte; also called monomeric FICD^L258D-H363A; monomeric FICD; source: E. coli (T7 Express lysY/Iq or M15), purified (Ni-NTA, on-bead Ulp1 cleavage, anion exchange, gel filtration); not shown: His6-Smt3, N-terminal, cleaved
Take B1: the binding result in data set [1], in data set [2] and in data set [3] was “binds” in each case.

B2: TPR domain oxidised dimeric FICD^D160C-T183C-H363A-C421S (enzyme, human, UniProt Q9BVA6 104-445, looked up)
chain: LEARAALNQALEMKRQGKREKAQKLFMHALKMDPDFVDALTEFGIFSEEDKDIIQACYLYTRALTISPYHEKALVNRDRCLPLVEEIDQRYFSIIDSKVKKVMSIPKGNSALRRVMEETYYHHIYHTVAIEGNTLTLSEIRHILETRYAVPGKSLEEQNEVIGMHAAMKYINTTLVSRIGSVTISDVLEIHRRVLGYVDPVEAGRFRTTQVLVGHHIPPHPQDVEKQMQEFVQWLNSEEAMNLHPVEFAALAHYKLVYIAPFIDGNGRTSRLLMNLILMQAGYPPITIRKEQRSDYYHVLEAANEGDVRPFIRFIAKSTETTLDTLLFATTEYSVALPEAQP
modifications: intramolecular disulphide bond between Cys160 and Cys183 (TPRox)
notes: FICD, human, residues 104-445, FICD^D160C-T183C-C421S derivative of FICD^H363A; also called TPRox (dimeric); FICD(TPRox); source: E. coli, purified; oxidised with CuSO4 and 1,10-phenanthroline, further anion exchange and gel filtration; not shown: His6-Smt3, N-terminal, cleaved
Take B2: the binding result in data set [2] is recorded as “binds”.

B3: FICD^H363A (residues 104-445) (enzyme, human, UniProt Q9BVA6 104-445, looked up)
chain: LEARAALNQALEMKRQGKREKAQKLFMHALKMDPDFVDALTEFGIFSEEDKDIIQADYLYTRALTISPYHEKALVNRDRTLPLVEEIDQRYFSIIDSKVKKVMSIPKGNSALRRVMEETYYHHIYHTVAIEGNTLTLSEIRHILETRYAVPGKSLEEQNEVIGMHAAMKYINTTLVSRIGSVTISDVLEIHRRVLGYVDPVEAGRFRTTQVLVGHHIPPHPQDVEKQMQEFVQWLNSEEAMNLHPVEFAALAHYKLVYIAPFIDGNGRTSRLLMNLILMQAGYPPITIRKEQRSDYYHVLEAANEGDVRPFIRFIAKCTETTLDTLLFATTEYSVALPEAQP
notes: FICD, human, residues 104-445; Used non-deuterated and partially deuterated in SANS, and as BLI analyte; also called dimeric FICD^H363A; dimeric FICD; source: E. coli, purified (Ni-NTA, on-bead Ulp1 cleavage, anion exchange, gel filtration); matchout-deuterated form from E. coli BL21 Star (DE3) in 85% deuterated medium, purified; not shown: His6-Smt3, N-terminal, cleaved
With B3, in data set [4], the stoichiometry N (commonly a count of units in the complex or per binding partner) is 1 FICD per BiP-AMP (2:2). In addition, in data set [5], the binding result is given as “binds”.

B4: TPR domain oxidised monomeric FICD^D160C-T183C-L258D-H363A-C421S (enzyme, human, UniProt Q9BVA6 104-445, looked up)
chain: LEARAALNQALEMKRQGKREKAQKLFMHALKMDPDFVDALTEFGIFSEEDKDIIQACYLYTRALTISPYHEKALVNRDRCLPLVEEIDQRYFSIIDSKVKKVMSIPKGNSALRRVMEETYYHHIYHTVAIEGNTLTLSEIRHILETRYAVPGKSDEEQNEVIGMHAAMKYINTTLVSRIGSVTISDVLEIHRRVLGYVDPVEAGRFRTTQVLVGHHIPPHPQDVEKQMQEFVQWLNSEEAMNLHPVEFAALAHYKLVYIAPFIDGNGRTSRLLMNLILMQAGYPPITIRKEQRSDYYHVLEAANEGDVRPFIRFIAKSTETTLDTLLFATTEYSVALPEAQP
modifications: intramolecular disulphide bond between Cys160 and Cys183 (TPRox)
notes: FICD, human, residues 104-445, FICD^D160C-T183C-C421S derivative of FICD^L258D-H363A; also called TPRox (monomeric); FICD(TPRox); source: E. coli, purified; oxidised with CuSO4 and 1,10-phenanthroline, further anion exchange and gel filtration; not shown: His6-Smt3, N-terminal, cleaved
As for B4, the binding result in data set [2] and in data set [3] was “binds” throughout.
